Earlier results on two molecules are cited in patent US20200247855A1, “THERAPY AND DIAGNOSTICS” (OXFORD UNIVERSITY INNOVATION LIMITED, priority 2017, published 2020).

Usually Kd stands for the concentration at which binding is half-saturated.

The target of one data set is T1, CCL21_HUMAN (Homo sapiens, UniProt O00585).
T1 sequence (O00585 24-134): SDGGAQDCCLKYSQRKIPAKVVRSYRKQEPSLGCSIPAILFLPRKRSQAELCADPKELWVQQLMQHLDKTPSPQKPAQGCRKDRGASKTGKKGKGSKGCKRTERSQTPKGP
The conditions noted are these: data obtained from publications [20-22,32]; read-out: Kd, CCL21_HUMAN, previously described evasins; cited from earlier work.

For a further data set, the target named is T2, CCL4_HUMAN (Homo sapiens, UniProt P13236).
T2 sequence (P13236 24-92): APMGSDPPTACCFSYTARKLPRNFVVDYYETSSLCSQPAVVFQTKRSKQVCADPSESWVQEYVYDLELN
The conditions noted are these: data obtained from publications [20-22,32]; cited from earlier work.

Another data set deals with T3, CCL5_HUMAN (Homo sapiens, UniProt P13501).
T3 sequence (P13501 24-91): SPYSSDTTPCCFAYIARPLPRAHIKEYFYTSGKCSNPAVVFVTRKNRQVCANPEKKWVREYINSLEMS
The conditions noted are these: read-out: Kd, CCL5_HUMAN, previously described evasins; data obtained from publications [20-22,32]; cited from earlier work.

Another data set addresses T4, CCL17_HUMAN (Homo sapiens, UniProt Q92583).
T4 sequence (Q92583 24-94): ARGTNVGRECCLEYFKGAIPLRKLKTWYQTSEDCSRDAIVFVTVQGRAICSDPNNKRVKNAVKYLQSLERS
The settings on record: read-out: Kd, CCL17_HUMAN, previously described evasins; data obtained from publications [20-22,32]; cited from earlier work.

In the next data set the target is T5, CCL25_HUMAN (Homo sapiens, UniProt O15444).
T5 sequence (O15444 24-150): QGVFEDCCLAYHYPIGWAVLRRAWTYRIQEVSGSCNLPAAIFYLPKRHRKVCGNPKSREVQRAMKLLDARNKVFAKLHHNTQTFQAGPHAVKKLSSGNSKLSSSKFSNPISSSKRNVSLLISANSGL
The settings on record: read-out: Kd, CCL25_HUMAN, previously described evasins; data obtained from publications [20-22,32]; cited from earlier work.

The subject of the next data set is chemokines. The conditions noted are these: list of chemokines bound, from the literature [18,20-22]; cited from earlier work.

B1: EVASIN4: previously described tick CKBP evasin 4, from Rhipicephalus sanguineus (protein, listed as Rhipicephalus sanguineus)
chain: EVPQMTSSSAPDLEEEDDYTAYAPLTCYFTNSTLGLLAPPNCSVLCNSTTTWFNETSPNNASCLLTVDFLTQDAILQENQPYNCSVGHCDNGTCAGPPRHAQCW
In the case of B1, the Kd in the data set with CCL21_HUMAN is 0.01 nM; with CCL5_HUMAN it was 0.09 nM; with CCL17_HUMAN, 0.61 nM; with CCL25_HUMAN it was 69.6 nM. Also, the “Kd, CCL4_HUMAN, previously described evasins” value in the data set with CCL4_HUMAN is given as “No Binding”.

B2: P1243_AMBAM: tick CKBP, Amblyomma americanum; AAM-02 stated identical (protein, listed as Amblyomma americanum)
chain: RNHTEDNSTEYYDYEEARCACPARHLNNTNGTVLKLLGCHYFCNGTLCTAPDGYPCYNLTAQQVRTLTTYPNTSCAVGVCMKGTCVKNGTMEQCFKTP
For B2, the “Previously described chemokine binding” value in the data set with chemokines was “CCL11, CCL24, and CCL26, CCL2, and CCL7”.
